Test system: human blood samples
Assay: OTEG fibrinolysis measurement (LY15) in human blood samples spiked with tPA
Details: human blood spiked with 0.5 μg/ml tPA (14% at 0 μg/ml), three repeated measurements, FIG. 13
Method: Dilutional coagulopathy is generated by serially diluting whole blood (30-60%) with phosphate buffer saline (PBS) solution to vary MA (FIGS. 9A, 9B, 9C). Diluted blood is treated with low to high doses of fibrinogen concentrate (80-160 μL) which also varies MA. Undiluted blood is treated with unfractionated heparin to reach a maximum concentration of 1 U/ml to vary PT, R and K times. To induce fibrinolysis, blood is spiked with varying concentrations of tissue plasminogen activator (tPA) to alter % LY (FIGS. 10A, 10B). Thrombocytopenia or low platelet count is achieved by blood centrifugation, and substitution of platelet-rich with platelet-poor plasma at varying doses, followed by subsequent reconstitution. […]
FIGS. 12, 12B, 12C, 12D, and 12E illustrate the effect of tissue plasminogen activator (tPA) on blood coagulation parameters (Clot Reaction Time, Clotting Time, Clot Progression Rate, Clot Stiffness, and Fibrinolysis) measured with OTEG according to an embodiment of the invention and TEG. […]
FIG. 13 illustrates reproducibility in OTEG-based fibrinolysis measurement of the parameter LY15 in human blood samples spiked with 0-0.5 μg/ml of tPA. The concentration of tPA from 0 to 0.5 μg/ml increases the fibrinolysis from 14% to 51%, which can be successfully detected with an embodiment of the invention. […]

B1: tPA: tissue plasminogen activator, spiked into blood to activate fibrinolysis (protein, UniProt P00750 36-562, looked up)
Tissue-type plasminogen …: SYQVICRDEKTQMIYQQHQSWLRPVLRSNRVEYCWCNSGRAQCHSVPVKSCSEPRCFNGGTCQQALYFSDFVCQCPEGFAGKCCEIDTRATCYEDQGISYRGTWSTAESGAECTNWNSSALAQKPYSGRRPDAIRLGLGNHNYCRNPDRDSKPWCYVFKAGKYSSEFCSTPACSEGNSDCYFGNGSAYRGTHSLTESGASCLPWNSMILIGKVYTAQNPSAQALGLGKHNYCRNPDGDAKPWCHVLKNRRLTWEYCDVPSCSTCGLRQYSQPQFRIKGGLFADIASHPWQAAIFAKHRRSPGERFLCGGILISSCWILSAAHCFQERFPPHHLTVILGRTYRVVPGEEEQKFEVEKYIVHKEFDDDTYDNDIALLQLKSDSSRCAQESSVVRTVCLPPADLQLPDWTECELSGYGKHEALSPFYSERLKEAHVRLYPSSRCTSQHLLNRTVTDNMLCAGDTRSGGPQANLHDACQGDSGGPLVCLNDGRMTLVGIISWGLGCGQKDVPGVYTKVTNYLDWIRDNMRP
fibrinolysis (LY15): 51%
